Substitutions are numbered along the chain they refer to. Names and notes keep the numbering of the source. A value given as a limit tells only on which side of the number the result lay.

For orientation: stoichiometry N means a count of units in the complex or per binding partner. In general, Kd refers to the equilibrium constant for the complex coming apart.

B1: TDP-43 N-terminal domain (NTD), wild-type, residues 1-80 (domain or fragment)
chain: GHMMSEYIRVTEDENDEPIEIPSEDDGTVLLSTVTAQFPGACGLRYRNPVSQCMRGVRLVEGILHAPDAGWGNLVYVVNYPKD
notes: three additional N-terminal residues left by the cloning strategy and TEV cleavage; TDP-43 N-terminal domain, residues 1-80 (codon of N81 changed to a stop codon); 15N-labelled or natural abundance, depending on the NMR experiment; also called TDP-43 NTD; NTD WT; source: E. coli BL21 Star DE3, purified (Histrap, TEV cleavage, SEC); not shown: Thioredoxin, N-terminal, cleaved; His6, N-terminal, …
B2: TDP-43 NTD S48E, residues 1-80 (domain or fragment)
chain: B1 chain with S51E
notes: three additional N-terminal residues left by the cloning strategy and TEV cleavage; TDP-43 N-terminal domain, residues 1-80, phosphomimetic S48E; 15N-, 13C/15N-labelled or natural abundance, depending on the NMR experiment; also called S48E TDP-43 NTD; S48E 1-80 NTD; source: E. coli BL21 Star DE3, purified (Histrap, TEV cleavage, SEC); not shown: Thioredoxin, N-terminal, cleaved; His6, …

Data set [1] concerns the molecule itself. The data set can be described thus: cross-linking; amine cross-linker BS3, 20 mM HEPES pH 7.5, 150 mM NaCl, 1 mM DTT, room temperature 30 min, SDS-PAGE; samples of 10-200 μM.
Data set [2] concerns the molecule itself. The data set can be described thus: AUC; sedimentation equilibrium, 28.28-89.23 μM, 150 mM NaCl, 20°C, 12,000, 25,000 and 43,000 rpm; isodesmic model, single KD for each association step.
Data set [3] deals with the molecule itself. The data set can be described thus: CG-MALS; composition gradient multi-angle light scattering, 20 mM HEPES pH 6.8, 150 mM NaCl, 1 mM DTT; isodesmic self-association model, each addition of a monomer.
Data set [4] deals with B1. Kind of data set: NMR titration; 1H-15N HSQC chemical shift deviations of 10 μM 15N-labelled protein with 90 μM natural abundance partner, against 10 μM alone. To be noted: both partners purified.
In data set [5] the target is TDP-43 NTD S48E, residues 1-80 (UniProt Q13148). Kind of data set: CG-MALS; composition gradient multi-angle light scattering, 20 mM HEPES pH 6.8, 150 mM NaCl, 1 mM DTT; isodesmic self-association model, each addition of a monomer.

Regarding B1, the “stoichiometry N” value in data set [1] was ≤ 7. Also, the Kd in data set [2] is ~40 µM; in data set [3], 95 µM.

As for B2, the binding result in data set [4] is recorded as “binds”. Also, the Kd in data set [5] worked out at 2000 µM.

These data come from publication PMC5830921, “A single N‐terminal phosphomimic disrupts TDP‐43 polymerization, phase separation, and RNA splicing” (The EMBO Journal, 2018).
